Values of other authors in publication PMC6620384.

Biological target: UNC5B-Fc (UniProt Q8IZJ1)
Test: SPR

Chain of UniProt Q8IZJ1 (Q8IZJ1 27-377): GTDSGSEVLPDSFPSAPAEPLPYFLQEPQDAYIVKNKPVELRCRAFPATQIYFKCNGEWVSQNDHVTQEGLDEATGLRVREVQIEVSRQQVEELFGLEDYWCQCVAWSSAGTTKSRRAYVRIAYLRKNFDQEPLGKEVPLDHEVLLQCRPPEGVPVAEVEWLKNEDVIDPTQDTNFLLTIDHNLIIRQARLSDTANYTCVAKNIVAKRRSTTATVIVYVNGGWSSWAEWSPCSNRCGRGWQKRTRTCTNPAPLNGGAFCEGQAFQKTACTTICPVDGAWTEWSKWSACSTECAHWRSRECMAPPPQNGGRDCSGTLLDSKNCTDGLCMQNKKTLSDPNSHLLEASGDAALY

Substance: Robo4-Fc (from UniProt Q8WZ75)
- Kd: 12 nM
